Results published in paper PMC9057587 (The Journal of Clinical Investigation, 2022).

Target: T1, human Tim-3 (T cell immunoglobulin mucin domain-containing protein 3) (Homo sapiens, UniProt Q8TDQ0)
T1 construct: human Tim-3 (HAVCR2), injected as the SPR analyte; I surmise the monomeric IgV domain; also called hTim3; hTim-3
Assay: SPR; Biacore T200, 37°C; antibody captured on a CM4 chip with preimmobilized anti-human IgG Fc pAb; human Tim-3 injected as analyte, single-cycle kinetics, 5-membered 5-fold dilution series, 1 uM top; 10 mM HEPES, 150 mM NaCl, 0.05% Tween 20, pH 7.4, 1 g/L BSA; 1:1 Langmuir model with mass transport
Conditions: both partners purified

T1 sequence (Q8TDQ0 22-301): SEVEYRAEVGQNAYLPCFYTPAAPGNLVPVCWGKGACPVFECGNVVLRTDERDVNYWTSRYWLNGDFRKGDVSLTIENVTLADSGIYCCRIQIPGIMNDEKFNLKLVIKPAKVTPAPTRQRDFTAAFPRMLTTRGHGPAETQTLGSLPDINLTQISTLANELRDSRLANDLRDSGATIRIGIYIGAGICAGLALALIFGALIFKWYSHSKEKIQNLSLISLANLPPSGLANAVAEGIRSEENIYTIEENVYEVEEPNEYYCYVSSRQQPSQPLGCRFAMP

B1: aTim-3.18 monoclonal antibody (antibody, V domains shown)
VH: QLQLQESGPGLVKPSETLSLTCTVSGGSISSRSYYWGWIRQPPGKGLEWIGSIYYSGFTYYQPSLKSRVTISVDTSKNQFSLKLSSVTAADTAVYYCATGGPYGDYAHWFEPWGQGTLVTVSS
VL: not shown
notes: Whole mAb from Bristol Myers Squibb, captured in SPR through an anti-human IgG Fc antibody; The isotype-matched control was an IgG4, so I surmise the mAb is a human IgG4; source: Expi293, transient transfection, purified (Protein A MabSelect SuRe)
- Kd: 1.8 nM
- koff: 0.0046 s⁻¹
- kon: 2.6e+06 M⁻¹ s⁻¹
